These results are taken from patent US20250242034A1, “PHOSPHORAMIDATE-BASED PSMA-TARGETED SMALL-MOLECULE DRUG CONJUGATES” (priority 2022, published 2025).

Series [1] is described as follows: reported pharmacokinetics of MMAE dosed directly. The format is in vivo. Conditions: corresponds to 60 mL/h.
Series [2] relates to PSMA+ PC3-PIP tumor cells. The format is in vivo, NCr nude mice. Conditions: n=8; for time until animals reached end point criteria / end point tumor burden after first administration: IV once weekly for 6 weeks, SMDCs 0.8 mg/kg, MMAE 0.2 mg/kg. The procedure:
Efficacy Study Design: NCr nude mice (age 6-8 weeks) injected with 1×10^6 PC3 PiP cells (1:1 in saline with Matrigel, 100 μL total volume) subcutaneously to right rear flank. Tumors were allowed to grow until approximate size of 100 mm^3 (roughly 2-3 weeks) before starting compound treatments. Treatment consisted of an injection of the appropriate compound to the lateral tail vein (100 μL bolus) once a week for the first 6 weeks of the study. Efficacy treatment groups were 8 animals each of: 1) saline, 2) MMAE alone, 0.2 mg/kg (molar equivalent to the MMAE conjugated to the small molecules), 3) CTT1700 (structure noted below), 0.8 mg/kg, 4) 1, 0.8 mg/kg, and 5) 2, 0.8 mg/kg. Tumor sizes were measured twice weekly for the duration of the study and mortality noted for survival curves. Animals were sacrificed if tumor condition reached IACUC standards for euthanasia (tumor burden of >1.5 cm in any axis, ulceration, >20% weight loss). Blood draws were taken via superficial temporal vein at 0, 4, 7 and 10 weeks and CBCs with 3-part differential measured.
(§1) To evaluate efficacy of SMDCs 1 and 2 in preclinical models of human PCa, we employed xenograft tumor models derived from PSMA+ PC3-PIP tumor cells implanted subcutaneously in the right rear flank of NCr nude mice (6-8 weeks old). […] Tumor sizes were measured twice weekly for the duration of the study and mortality noted for survival curves for 90 days after first administration. Animals were euthanized if tumor or mouse condition reached IACUC standards for euthanasia (tumor burden of >1.5 cm in any axis, ulceration, >20% mouse weight loss). Blood draws were taken via superficial temporal vein at 0, 4, 7 and 10 weeks, and complete blood count (CBC) analysis was performed with a 3-part differential measurement.

For series [3] the following is noted: cited from earlier work.
The target of another series is PSMA (Homo sapiens, UniProt Q04609). Put plainly: PSMA binding (IC50 values for PSMA).
PSMA, sequence (Q04609 whole entry): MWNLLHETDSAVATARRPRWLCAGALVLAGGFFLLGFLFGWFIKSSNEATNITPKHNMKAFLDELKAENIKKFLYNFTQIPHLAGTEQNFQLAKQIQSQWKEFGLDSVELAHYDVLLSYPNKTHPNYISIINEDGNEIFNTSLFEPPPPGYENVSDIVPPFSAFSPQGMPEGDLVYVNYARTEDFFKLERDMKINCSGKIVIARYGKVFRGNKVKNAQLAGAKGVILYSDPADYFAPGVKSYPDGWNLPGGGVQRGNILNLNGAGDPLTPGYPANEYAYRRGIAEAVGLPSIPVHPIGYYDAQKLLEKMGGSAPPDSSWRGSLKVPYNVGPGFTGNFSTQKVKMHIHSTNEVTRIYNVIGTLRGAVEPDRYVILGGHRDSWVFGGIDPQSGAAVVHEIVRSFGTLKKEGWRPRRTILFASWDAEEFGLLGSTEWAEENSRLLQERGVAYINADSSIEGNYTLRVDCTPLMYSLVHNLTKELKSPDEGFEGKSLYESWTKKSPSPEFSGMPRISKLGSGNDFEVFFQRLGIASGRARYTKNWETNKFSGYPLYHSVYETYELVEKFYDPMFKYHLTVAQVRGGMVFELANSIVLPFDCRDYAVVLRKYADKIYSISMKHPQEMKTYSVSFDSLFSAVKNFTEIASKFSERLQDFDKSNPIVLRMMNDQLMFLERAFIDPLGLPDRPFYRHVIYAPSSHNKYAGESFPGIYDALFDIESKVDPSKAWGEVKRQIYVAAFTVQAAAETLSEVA
Series [4] can be described thus: Compound residence study (PK): plasma and tissue levels of parent drug and MMAE by LC-MS/MS. The format is in vivo, NCr nude mice. Particulars: for Tumor AUC0-t, MMAE / Tumor Cmax, MMAE / Tumor AUC0-t, Parent / Tumor Cmax, Parent: PC3-PiP tumor; for Tumor AUC0-t, MMAE / Tumor Cmax, MMAE / Kidney AUC0-t, MMAE / Kidney Cmax, MMAE / Plasma % extrapolated, MMAE: analyte MMAE payload; for fraction of drug that is estimated to release MMAE: calculated from apparent MMAE formation clearance and reported MMAE clearance; for parent drug concentrations in tissues other than tumor: 0.8 mg/kg. The procedure: Compound Residence study design (PK Studies): Three volumes of PBS, pH 7.4, were added to tumor, kidney, and lacrimal tissues and 10 volumes of PBS, pH 7.4, were added to prostate tissue samples. Tumor, kidney, and prostate samples were homogenized with a homogenizer, and lacrimal tissues were sonicated with a sonicator. Twenty five microliters of plasma or tissue homogenate was added to a microcentrifuge tube followed by 10 μL of internal standard solution and 100 μL of 5 mM ammonium bicarbonate and acetonitrile (25:75 v,v). The sample was then vortexed at a high setting for 1 minute and centrifuged at 17,200×g for 10 minutes. The resultant supernatant was pipetted into an HPLC vial and 10-20 μL was injected into the LC-MS/MS system. […] [^2H8]-MMAE was used as the internal standard for MMAE. […] A SCIEX 6500+ Qtrap LC-MS/MS system consisting of an Agilent (Palo Alto, CA 94036) 1290 HPLC and Sciex 6500+ QTrap mass detector was used for quantitation of MMAE concentrations. The chromatography consisted of a gradient using of 5 mM ammonium bicarbonate and acetonitrile and the separation was achieved using a Phenomenex (Torrance, CA 90501) Kinetex column (2×50 mm, 2.6 μm). […] Standard curves were linear from 10-10,000 ng/mL for CTT1700, SMDCs 2 and 1 while the MMAE standard curves were linear from 0.01 to 10 ng/mL. A 1/y^2 weighted linear regression was used for all standard curves.
PK parameters were estimated using standard noncompartmental methods with Phoenix WinNonlin (Certara, Princeton, NJ). Plasma parent drugs were derived using the IV bolus approach, while all other data were derived using the extravascular approach.
as §1, with “measurement. For biodistribution studies, blood samples were obtained at 1 and 6 h post a single 0.8 mg/kg dose, followed by euthanasia at 24, 72 and 120 h; LC-MS/MS analysis was performed to determine concentrations of SMDC and MMAE in plasma, tumor, lacrimal gland, kidney, and prostate samples.” for “measurement.”

[5] abbreviates: 0.8 mg/kg IV once weekly for 6 weeks.
The mark [6] stands for this setting: IV 0.8 mg/kg, analyte parent drug.
[7] abbreviates: IV 0.8 mg/kg, kidney, analyte parent drug.
[8] abbreviates: IV 0.8 mg/kg, plasma, analyte parent drug.
Setting [9] is: NCr nude, mouse, IV 0.8 mg/kg, plasma, analyte parent drug, read-out: Plasma Cmax, Parent.

Structures are written as SMILES. Like-named read-outs stand apart in the source and are kept apart here. Square brackets hold non-standard residues; d marks the D form. Peptide text beside a SMILES is read from it. * marks the point of attachment. Dolaproine = CO[C@@H]([C@@H]1CCCN1)[C@@H](C)C(=O)O; Dil = CC[C@H](C)[C@H](NC)[C@@H](CC(=O)O)OC; X1 = C[C@@H](N*)[C@@H](O)c1ccccc1; NMeV = CN[C@H](C(=O)O)C(C)C

Regarding `CC[C@H](C)[C@@H]([C@@H](CC(=O)N1CCC[C@H]1[C@H](OC)[C@@H](C)C(=O)N[C@H](C)[C@@H](O)c1ccccc1)OC)N(C)C(=O)[C@@H](NC(=O)[C@@H](NC)C(C)C)C(C)C` [MMAE, Monomethyl auristatin E] (H-[NMeV]V[Dil][Dolaproine]-X1), the “reported plasma clearance of MMAE, converted” value in series [1] is 1960 mL/h/kg. Further, the “time until animals reached end point criteria / end point tumor burden after first administration” value in series [2] was ≤ 6 weeks. The “t1/2 reported for MMAE when dosed directly” value in series [3] (MMAE dosed directly) is on record as 4.1 h. Besides, in series [3] (in vivo), the “reported plasma clearance of MMAE” value is reported as 60 mL/h.
At PSMA, `CC[C@H](C)[C@@H]([C@@H](CC(=O)N1CCC[C@H]1[C@H](OC)[C@@H](C)C(=O)N[C@H](C)[C@@H](O)c1ccccc1)OC)N(C)C(=O)[C@@H](NC(=O)[C@H](C(C)C)N(C)C(=O)OCc1ccc(OC(=O)N(C)CCN(C)P(=O)(O)OCC[C@H](NC(=O)c2ccc(Cn3nnc4c3-c3ccccc3CN(C(=O)CCC(=O)NCCOCCOCCOCCOCCC(=O)N[C@@H](CCC(=O)NCCCCCC(=O)N[C@@H](CCC(=O)N[C@@H](CCCOP(=O)(O)N[C@@H](CCC(=O)O)C(=O)O)C(=O)O)C(=O)O)C(=O)N[C@H](CCCCNC(=O)CCCc3ccc(I)cc3)C(=O)O)c3ccccc3-4)cc2)C(=O)O)cc1)C(C)C` [SMDC 2] had an IC50 of 1.74 ± 0.14 nM.
As for `CC[C@H](C)[C@@H]([C@@H](CC(=O)N1CCC[C@H]1[C@H](OC)[C@@H](C)C(=O)N[C@H](C)[C@@H](O)c1ccccc1)OC)N(C)C(=O)[C@@H](NC(=O)[C@H](C(C)C)N(C)P(=O)(O)OCC[C@H](NC(=O)c1ccc(Cn2nnc3c2-c2ccccc2CN(C(=O)CCC(=O)NCCOCCOCCOCCOCCC(=O)N[C@@H](CCC(=O)NCCCCCC(=O)N[C@@H](CCC(=O)N[C@@H](CCCOP(=O)(O)N[C@@H](CCC(=O)O)C(=O)O)C(=O)O)C(=O)O)C(=O)N[C@H](CCCCNC(=O)CCCc2ccc(I)cc2)C(=O)O)c2ccccc2-3)cc1)C(=O)O)C(C)C` [CTT1700, reference compound], in series [2] (setting [5]), the “therapeutic efficacy (in words)” value is listed as “moderate efficacy”. For the same compound, the “time until animals reached end point criteria / end point tumor burden after first administration” value in series [2] was ≤ 12 weeks. For the same compound, in series [4] (IV 0.8 mg/kg), the “Tumor AUC0-t, MMAE” value is 262 ng·days/g and the “Tumor Cmax, MMAE” value stood at 98.7 ng/g. Besides, in series [4] (setting [6]), the “Tumor AUC0-t, Parent” value was found to be 483 ng·days/g and the “Tumor Cmax, Parent” value is reported as 194 ng/g. Also, in series [4] (IV 0.8 mg/kg, kidney), the “Kidney AUC0-t, MMAE” value was 4.00 ng·days/g and the “Kidney Cmax, MMAE” value stood at 1.82 ng/g. In addition, in series [4] (setting [7]), the “Kidney AUC0-t, Parent” value came to 685 ng·days/g and the “Kidney Cmax, Parent” value is given as 400 ng/g. Besides, in series [4] (IV 0.8 mg/kg, lacrimal gland, analyte parent drug), the “Lacrimal AUC0-t, Parent” value was found to be 220 ng·days/g. The “Plasma % extrapolated, MMAE” value in series [4] (IV 0.8 mg/kg, plasma AUC) was 28%. In series [4] (IV 0.8 mg/kg, plasma AUC, analyte parent drug), the “Plasma % extrapolated, Parent” value is 1.9%. Moreover, in series [4] (setting [8]), the “Plasma AUC0-inf, Parent” value is 6566 ng·days/mL and the “Plasma AUC0-t, Parent” value turned out to be 6442 ng·days/mL. Also, the “Prostate AUC0-t, Parent” value in series [4] (IV 0.8 mg/kg, prostate, analyte parent drug) is 647 ng·days/g. In addition, the Kp in series [4] (NCr nude, mouse, kidney/plasma, IV 0.8 mg/kg, analyte parent drug, read-out: Kp (kidney/plasma), Parent) was 0.106. Besides, in series [4] (NCr nude, mouse, lacrimal gland/plasma, IV 0.8 mg/kg, analyte parent drug, read-out: Kp (Lacrimal/plasma), Parent), the Kp came to 0.0342. Also, the Kp in series [4] (NCr nude, mouse, prostate/plasma, IV 0.8 mg/kg, analyte parent drug, read-out: Kp (prostate/plasma), Parent) turned out to be 0.1. For the same compound, the Kp in series [4] (NCr nude, mouse, tumor/plasma, IV 0.8 mg/kg, analyte parent drug, read-out: Kp (tumor/plasma), Parent) is 0.075. Besides, the Cmax in series [4] (NCr nude, mouse, IV 0.8 mg/kg, lacrimal gland, analyte parent drug, read-out: Lacrimal Cmax, Parent) was 71.9 ng/g. Also, the Tmax in series [4] (NCr nude, mouse, IV 0.8 mg/kg, plasma, analyte parent drug) was found to be 1 h. In series [4] (NCr nude, mouse, IV 0.8 mg/kg, plasma, analyte parent drug, read-out: Plasma Cl, Parent (converted)), the clearance was 5.08 mL/h/kg. Also, in series [4] (setting [9]), the Cmax was found to be 7020 ng/mL. Moreover, in series [4] (NCr nude, mouse, IV 0.8 mg/kg, plasma, analyte parent drug, read-out: Plasma Vss, Parent), the Vd was determined as 0.136 L/kg. Also, the half-life in series [4] (NCr nude, mouse, IV 0.8 mg/kg, plasma, analyte parent drug, read-out: Plasma t1/2, Parent (converted)) was 23 h. Moreover, the Cmax in series [4] (NCr nude, mouse, IV 0.8 mg/kg, prostate, analyte parent drug, read-out: Prostate Cmax, Parent) was 280 ng/g. Moreover, in series [4], the “fraction of drug that is estimated to release MMAE” value is 1%.
As to `CC[C@H](C)[C@@H]([C@@H](CC(=O)N1CCC[C@H]1[C@H](OC)[C@@H](C)C(=O)N[C@H](C)[C@@H](O)c1ccccc1)OC)N(C)C(=O)[C@@H](NC(=O)[C@H](C(C)C)N(C)C(=O)OCc1ccc(NC(=O)[C@H](CCCNC(N)=O)NC(=O)[C@@H](NC(=O)c2ccc(Cn3nnc4c3-c3ccccc3CN(C(=O)CCC(=O)NCCOCCOCCOCCOCCC(=O)N[C@@H](CCC(=O)NCCCCCC(=O)N[C@@H](CCC(=O)N[C@@H](CCCOP(=O)(O)N[C@@H](CCC(=O)O)C(=O)O)C(=O)O)C(=O)O)C(=O)N[C@H](CCCCNC(=O)CCCc3ccc(I)cc3)C(=O)O)c3ccccc3-4)cc2)C(C)C)cc1)C(C)C` [SMDC 1], in series [2] (setting [5]), the “survival 90 days after initial dosing” value is “Six of eight”; the “therapeutic efficacy (in words)” value was “dramatic efficacy compared to controls”; the tumor growth response result is given as “tumor regression was observed following initiation of administration up until 2 weeks after the last dose, with subsequent slow tumor growth”. Also, the IC50 at PSMA (read-out: IC50 for PSMA) amounted to 24.1 ± 2.1 nM. Further, in series [4] (IV 0.8 mg/kg), the “Tumor AUC0-t, MMAE” value worked out at 1652 ng·days/g and the “Tumor Cmax, MMAE” value was determined as 509 ng/g. For the same compound, in series [4] (setting [6]), the “Tumor AUC0-t, Parent” value amounted to 475 ng·days/g; the “Tumor Cmax, Parent” value came out at 122 ng/g; the “parent drug concentrations in tissues other than tumor” value is reported as “could not be quantified in any other tissue other than the tumor”. For the same compound, the “parent drug concentrations in tissues other than tumor” value in series [4] (IV 0.8 mg/kg, analyte parent drug, listed as VC) is given as “VC concentrations in all tissues other than tumor were below the LLOQ”. In series [4] (IV 0.8 mg/kg, kidney), the “Kidney AUC0-t, MMAE” value came out at 55.5 ng·days/g and the “Kidney Cmax, MMAE” value was found to be 30.6 ng/g. In addition, in series [4] (IV 0.8 mg/kg, plasma), the “distribution volume of parent SMDC” value is 0.106 L/kg. Further, the “Plasma % extrapolated, MMAE” value in series [4] (IV 0.8 mg/kg, plasma AUC) is given as 2.9%. Besides, the “absolute tumor MMAE exposure compared to CTT1700” value in series [4] (IV 0.8 mg/kg, tumor, higher than control SMDC with non-degradable linker) is reported as “approximately 6 fold”. Besides, in series [4] (setting [9]), the Cmax is < 10 ng/mL. For the same compound, the “fraction of drug that is estimated to release MMAE” value in series [4] was 38%.
